Patent publication US20220380421

System: GST-AcrIIA16_Lmo

Myc-tagged SpyCas9-sgRNA
target DNA cleavage by SpyCas9 co-immunoprecipitated with the Acr: SpyCas9 co-purified with AcrIIA16Lmo is not inhibited
